In PMC12342048, “Cleavage of Cartilage Oligomeric Matrix Protein (COMP) by ADAMTS4 generates a neoepitope associated with osteoarthritis and other forms of degenerative joint disease” (Matrix biology : journal of the International Society for …, 2024):

Legend:
[1] = target: the molecule itself; experiment: non-reducing SDS-PAGE with immunoblot; hCOMP (520 nM) incubated with ADAMTS4 WT (12 nM) for 2 h at 37 °C in TNC-B; non-reducing SDS-PAGE, immunoblot with anti-QQS77 neoepitope antibody
[2] = target: the molecule itself; experiment: non-reducing SDS-PAGE; purified COMP, 4 μg/lane, 4–12 % SDS-PAGE under non-reducing conditions, Coomassie Brilliant Blue staining; under reducing conditions (5 % β-mercaptoethanol) a monomer band at ~100 kDa

B1: fully cleaved N-terminal domain (NTD) of COMP ending at the QQS77 neoepitope (domain or fragment, human, UniProt P49747-1 21-77, looked up)
chain: QGQSPLGSDLGPQMLRELQETNAALQDVRELLRQQVREITFLKNTVMECDACGMQQS
notes: Cartilage Oligomeric Matrix Protein, human, N-terminal product of the cleavage at the S77-V78 bond; numbers count on NP_000086.2 (precursor); Made by proteolysis of m2; also called fully cleaved NTD pentamer; N-terminal cleavage fragment; source: hCOMP (520 nM, purified from Freestyle 293-F medium) digested with purified ADAMTS4 (12 nM), 2 h, 37 °C
For B1, the “stoichiometry N” value [1] was 5.

B2: Drosophila melanogaster S2-expressed human COMP (Cartilage Oligomeric Matrix Protein) (natural protein)
chain: not shown
modifications: N-linked glycans (shown by PNGase F)
notes: Cartilage Oligomeric Matrix Protein, human; the Drosophila BiP secretion signal is fused to Gly22 of COMP and cleaved off before secretion to give a native N terminus; numbers count on NP_000086.2 (precursor); on non-reducing SDS-PAGE a mixture of monomers to pentamers was seen; also called iCOMP; thrombospondin 5; source: Drosophila melanogaster Schneider 2 (S2) cells, purified from conditioned …
B2: binds [2].
